Where no end group is shown, it is not given here. [ ]: non-standard residue; d: D form. pT = C[C@@H](OP(=O)(O)O)[C@H](N)C(=O)O; pS = N[C@@H](COP(=O)(O)O)C(=O)O; CF = carboxyfluorescein
Tests used:
Skp1-FBXW7 complex [1] = target: T1, Skp1-FBXW7 complex (human, UniProt P63208 1-149; Q969H0 263-707); assay: FP; direct titration
Skp1-FBXW7 complex [2] = target: T1, Skp1-FBXW7 complex; assay: FP; competition, unlabeled peptide

T1 sequence (P63208 1-149, chain 1 of 2): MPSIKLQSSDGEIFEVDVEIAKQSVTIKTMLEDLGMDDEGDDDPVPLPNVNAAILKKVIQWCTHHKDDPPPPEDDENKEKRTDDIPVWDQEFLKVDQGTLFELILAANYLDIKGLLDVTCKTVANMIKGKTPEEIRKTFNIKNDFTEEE
T1 sequence (Q969H0 263-707, chain 2 of 2): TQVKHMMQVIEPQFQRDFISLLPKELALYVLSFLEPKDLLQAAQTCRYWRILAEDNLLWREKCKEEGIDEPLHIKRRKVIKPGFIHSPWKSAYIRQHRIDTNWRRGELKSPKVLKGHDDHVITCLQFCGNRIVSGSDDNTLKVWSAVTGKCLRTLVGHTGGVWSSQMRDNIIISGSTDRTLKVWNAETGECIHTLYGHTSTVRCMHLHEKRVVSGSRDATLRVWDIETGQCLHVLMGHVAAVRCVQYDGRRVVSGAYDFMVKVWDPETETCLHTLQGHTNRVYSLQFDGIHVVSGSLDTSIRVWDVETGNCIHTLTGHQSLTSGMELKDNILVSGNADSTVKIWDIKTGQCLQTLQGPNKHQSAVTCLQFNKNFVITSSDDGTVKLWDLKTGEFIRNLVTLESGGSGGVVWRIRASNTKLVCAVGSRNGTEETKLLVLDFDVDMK

Binder | Kd (Skp1-FBXW7 complex [1]) | Kd (Skp1-FBXW7 complex [2])
{CF}-PSGLL[pT]PPQ[pS]GKKQ [carboxyfluorescein (CF) labeled CCNE peptide (CF-PSGLLpTPPQpSGKKQ)] | 2.8 nM | 
PSGLL[pT]PPQ[pS]GKKQ (also: N-terminal carboxyfluorescein on the labelled probe form) [CCNE] |  | 15.9 nM

Reference: paper PMC8955265 (2022)
